Results as given in patent US20230250154A1 (CYTONICS, published 2023).

Tests used:
Assay in all cases: cell-based or functional assay
Elastase = target: Elastase
Cathepsin G = target: T1, Cathepsin G (UniProt P08311 21-244)
T1 sequence (looked up): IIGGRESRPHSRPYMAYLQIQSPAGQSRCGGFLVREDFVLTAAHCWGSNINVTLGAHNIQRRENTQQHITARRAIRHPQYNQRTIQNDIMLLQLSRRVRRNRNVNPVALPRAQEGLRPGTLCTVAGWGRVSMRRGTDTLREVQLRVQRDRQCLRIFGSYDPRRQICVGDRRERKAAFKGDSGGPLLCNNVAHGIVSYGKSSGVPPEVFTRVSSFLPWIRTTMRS

MMP1 = target: T2, MMP1 (human, UniProt P03956 100-469, limits assumed)
T2 sequence (looked up): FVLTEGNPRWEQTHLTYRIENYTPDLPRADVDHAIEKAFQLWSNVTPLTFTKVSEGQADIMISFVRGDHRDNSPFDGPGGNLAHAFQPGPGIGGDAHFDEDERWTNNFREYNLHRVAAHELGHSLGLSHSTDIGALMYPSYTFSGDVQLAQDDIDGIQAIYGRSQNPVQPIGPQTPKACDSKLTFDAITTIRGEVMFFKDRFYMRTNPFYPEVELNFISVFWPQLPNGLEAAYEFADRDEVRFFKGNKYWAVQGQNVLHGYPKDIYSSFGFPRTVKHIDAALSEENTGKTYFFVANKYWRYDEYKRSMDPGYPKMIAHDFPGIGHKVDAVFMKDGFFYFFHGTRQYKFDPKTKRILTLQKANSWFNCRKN

B1: Variant A2M, bait region SEQ ID NO 138 (other)
chain: SVSGKPQYMVLVPSLLHTETTEKGCVLLSYLNETVTVSASLESVRGNRSLFTDLEAENDVLHCVAFAVPKSSSNEEVMFLTVQVKGPTQEFKKRTTVMVKNEDSLVFVQTDKSIYKPGQTVKFRVVSMDENFHPLNELIPLVYIQDPKGNRIAQWQSFQLEGGLKQFSFPLSSEPFQGSYKVVVQKKSGGRTEHPFTVEEFVLPKFEVQVTVPKIITILEEEMNVSVCGLYTYGKPVPGHVTVSICRKYSDASDCHGEDSQAFCEKFSGQLNSHGCFYQQVKTKVFQLKRKEYEMKLHTEAQIQEEGTVVELTGRQSSEITRTITKLSFVKVDSHFRQGIPFFGQVRLVDGKGVPIPNKVIFIRGNEANYYSNATTDEHGLVQFSINTTNVMGTSLTVRVNYKDRSPCYGYQWVSEEHEEAHHTAYLVFSPSKSFVHLEPMSHELPCGHTQTVQAHYILNGGTLLGLKKLSFYYLIMAKGGIVRTGTHGLLVKQEDMKGHFSISIPVKSDIAPVARLLIYAVLPTGDVIGDSAKYDVENCLANKVDLSFSPSQSLPASHAHLRVTAAPQSVCALRAVDQSVLLMKPDAELSASSVYNLLPEKDLTGFPGPLNDQDDEDCINRHNVYINGITYTPVSSTNEKDMYSFLEDMGLKAFTNSKIRKPKMCPQLEQYEMHGPSEDLVVQIEGEGEGEGIPENFFGVKEEEGLGSVEEPHTKLRKYFPETWIWDLVVVNSAGVAEVGVTVPDTITEWKAGAFCLSEDAGLGISSTASLRAFQPFFVELTMPYSVIRGEAFTLKATVLNYLPKCIRVSVQLEASPAFLAVPVEKEQAPHCICANGRQTVSWAVTPKSLGNVNFTVSAEALESQELCGTEVPSVPEHGRKDTVIKPLLVEPEGLEKETTFNSLLCPSGGEVSEELSLKLPPNVVEESARASVSVLGDILGSAMQNTQNLLQMPYGCGEQNMVLFAPNIYVLDYLNETQQLTPEIKSKAIGYLNTGYQRQLNYKHYDGSYSTFGERYGRNQGNTWLTAFVLKTFAQARAYIFIDEAHITQALIWLSQRQKDNGCFRSSGSLLNNAIKGGVEDEVTLSAYITIALLEIPLTVTHPVVRNALFCLESAWKTAQEGDHGSHVYTKALLAYAFALAGNQDKRKEVLKSLNEEAVKKDNSVHWERPQKPKAPVGHFYEPQAPSAEVEMTSYVLLAYLTAQPAPTSEDLTSATNIVKWITKQQNAQGGFSSTQDTVVALHALSKYGAATFTRTGKAAQVTIQSSGTFSSKFQVDNNNRLLLQQVSLPELPGEYSMKVTGEGCVYLQTSLKYNILPEKEEFPFALGVQTLPQTCDEPKAHTSFQISLSVSYTGSRSASNMAIVDVKMVSGFIPLKPTVKMLERSNHVSRTEVSSNHVLIYLDKVSNQTLSLFFTVLQDVPVRDLKPAIVKVYDYYETDEFAIAEYNAPCSKDLGNADYKDDDDKGASHHHHHH
- Protease Inhibition (% of WT) (Elastase): 250 % of WT
- Protease Inhibition (% of WT) (Cathepsin G): 100 % of WT
- Protease Inhibition (% of WT) (MMP1): 200 % of WT
